Source: patent EP4442322A1
One block for each binder: values may come before it.

Molecular target: ASGPR of the murine amino acid sequence (murine)
Assay: cell-based or functional assay

ASGPR of the murine amino acid sequence (murine), sequence (P34927 whole entry, chain 1 of 2): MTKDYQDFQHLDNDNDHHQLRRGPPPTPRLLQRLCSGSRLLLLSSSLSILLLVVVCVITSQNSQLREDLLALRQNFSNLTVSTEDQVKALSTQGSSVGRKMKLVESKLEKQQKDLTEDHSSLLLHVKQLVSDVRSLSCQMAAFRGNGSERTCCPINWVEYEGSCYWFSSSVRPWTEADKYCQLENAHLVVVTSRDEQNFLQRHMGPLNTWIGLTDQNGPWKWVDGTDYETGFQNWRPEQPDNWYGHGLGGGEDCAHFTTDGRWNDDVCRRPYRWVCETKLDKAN
ASGPR of the murine amino acid sequence (murine), sequence (P24721 whole entry, chain 2 of 2, further chain): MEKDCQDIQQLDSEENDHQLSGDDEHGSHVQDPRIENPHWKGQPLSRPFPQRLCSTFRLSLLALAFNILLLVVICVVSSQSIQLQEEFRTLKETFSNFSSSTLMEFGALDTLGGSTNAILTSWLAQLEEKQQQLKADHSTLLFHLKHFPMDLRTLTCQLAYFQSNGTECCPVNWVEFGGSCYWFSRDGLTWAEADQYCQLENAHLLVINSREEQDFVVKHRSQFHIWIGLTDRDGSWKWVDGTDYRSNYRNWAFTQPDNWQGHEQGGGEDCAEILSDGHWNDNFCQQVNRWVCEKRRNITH

- activated cells (GFP), Q2 (Fig. 9E): 3.7%
- activated cells (GFP), Q2 and Q3 in total (Fig. 9E): 6.06%
- activated cells (GFP), Q3 (Fig. 9E): 2.36%
B1: CAR having the scFv of SEQ ID NO: 26 (C3), murine Ig-construct (mIg) (protein)
chain: VHSQVTLKESGGGLVQPGGSLRLSCAASGFTFSSYAMSWVRQAPGKGLEWVSAISGSGGSTYYADSVKGRFTISRDNSKNTLYLQMNSLRAEDTAVYYCAKDLKQWLEDYWGQGTLVTVSSGSASAPKLEEGEFSEARVDVVMTQSPSTLSASVGDRVTITCRASQSIGPWLAWYQQKPGEAPKLLLYKASILEGGVPSRFSGRGSGTEFTLTISSLQPDDFATYYCQQYNTFGPTFGQGTKLEIKRTVAAPSVFDPVPRDGGCKPCICTVPRDGGCKPCICTVPEVSSVFIFPPKPKDVLTITLTPKVTCVVVDISKDDPEVQFSWFVDDVEVHTAQTQPREEQFNSTFRSVSELPIMHQDWLNGKEFKCRVNSAAFPAPIEKTISKTKGRPKAPQVCTIPPPKEQMAKDKVSLTCMITDFFPEDITVEWQWNGQPAENYKNTQPIMDTDGSYFVYSKLNVQKSNWEAGNTFTCSVLHEGLHNHHTEKSLSHSPGVFLACVLGGSFGFLGFLGLCILCCVNSRRNRLLQSDYMNMTPRRPGLTRKPYQPYAPARDFAAYRPLRAKFSRSAETAANLQDPNQLYNELNLGRREEYDVLEKKRARDPEMGGKQQRRRNPQEGVYNALQKDKMAEAYSEIGTKGERRRGKGHDGLYQGLSTATKDTYDALHMQTLAPR

- activated cells (GFP), Q2 (Fig. 6F): 4.04%
- activated cells (GFP), Q2 and Q3 in total (Fig. 6F): 9.44%
- activated cells (GFP), Q3 (Fig. 6F): 5.4%
B2: CAR having the scFv of SEQ ID NO: 24 (C11), murine CD8 construct (mCD8) (protein)
chain: QIQLVQSGGGLVQPGGSLRLSCAGSGYTFSDHYMDWVRQAPGKGLEWVGRIRYKANSYSTEYAASVKGRFTISRDDSRNSLFLQMNSLKTEDTAVYYCARIRDRYYFDYWGQGALVTVSSGSASAPKLEEGEFSEARVQSVLTQPPSVSGAPGQRVTISCTGSSSNVGAGYDVHWYQQLPGAAPKLLIYGNSNRPSGVPDRFSGSKSGTSASLAISGLQSEDEADYYCAAWDDSLNGVVFGGGTKLTVLGQPKAAPSVTLFPPSSAAAGSEQKLISEEDLSHHHHHHSSVVPVLQKVNSTTTKPVLRTPSPVHPTGTSQPQRPEDCRPRGSVKGTGLDFACDIYIWAPLAGICVALLLSLIITLICYHRWTNSRRNRLLQSDYMNMTPRRPGLTRKPYQPYAPARDFAAYRPRAKFSRSAETAANLQDPNQLYNELNLGRREEYDVLEKKRARDPEMGGKQQRRRNPQEGVYNALQKDKMAEAYSEIGTKGERRRGKGHDGLYQGLSTATKDTYDALHMQTLAPR

- activated cells (GFP), Q2 (Fig. 6E): 3.41%
- activated cells (GFP), Q2 and Q3 in total (Fig. 6E): 13.3%
- activated cells (GFP), Q3 (Fig. 6E): 9.86%
B3: CAR having the scFv of SEQ ID NO: 24 (C11), murine Ig-construct (mIg) (protein)
chain: QIQLVQSGGGLVQPGGSLRLSCAGSGYTFSDHYMDWVRQAPGKGLEWVGRIRYKANSYSTEYAASVKGRFTISRDDSRNSLFLQMNSLKTEDTAVYYCARIRDRYYFDYWGQGALVTVSSGSASAPKLEEGEFSEARVQSVLTQPPSVSGAPGQRVTISCTGSSSNVGAGYDVHWYQQLPGAAPKLLIYGNSNRPSGVPDRFSGSKSGTSASLAISGLQSEDEADYYCAAWDDSLNGVVFGGGTKLTVLGQPKAAPSVTLFPPSSAAAGSEQKLISEEDLSHHHHHHVPRDGGCKPCICTVPEVSSVFIFPPKPKDVLTITLTPKVTCVVVDISKDDPEVQFSWFVDDVEVHTAQTQPREEQFNSTFRSVSELPIMHQDWLNGKEFKCRVNSAAFPAPIEKTISKTKGRPKAPQVCTIPPPKEQMAKDKVSLTCMITDFFPEDITVEWQWNGQPAENYKNTQPIMDTDGSYFVYSKLNVQKSNWEAGNTFTCSVLHEGLHNHHTEKSLSHSPGVFLACVLGGSFGFLGFLGLCILCCVNSRRNRLLQSDYMNMTPRRPGLTRKPYQPYAPARDFAAYRPLRAKFSRSAETAANLQDPNQLYNELNLGRREEYDVLEKKRARDPEMGGKQQRRRNPQEGVYNALQKDKMAEAYSEIGTKGERRRGKGHDGLYQGLSTATKDTYDALHMQTLAPR
